Results reported in publication PMC2691479, “SNX4 in Complex with Clathrin and Dynein: Implications for Endosome Movement” (PLoS ONE, 2009).

Molecular target: T1, Sorting nexin 4 (SNX4), endogenous (human (endogenous in HEK293), UniProt O95219 1-450)
T1 construct: SNX4, endogenous in HEK293 cells, precipitated with anti-SNX4 (E-18); source: endogenous, HEK293 lysate
T1 sequence (looked up): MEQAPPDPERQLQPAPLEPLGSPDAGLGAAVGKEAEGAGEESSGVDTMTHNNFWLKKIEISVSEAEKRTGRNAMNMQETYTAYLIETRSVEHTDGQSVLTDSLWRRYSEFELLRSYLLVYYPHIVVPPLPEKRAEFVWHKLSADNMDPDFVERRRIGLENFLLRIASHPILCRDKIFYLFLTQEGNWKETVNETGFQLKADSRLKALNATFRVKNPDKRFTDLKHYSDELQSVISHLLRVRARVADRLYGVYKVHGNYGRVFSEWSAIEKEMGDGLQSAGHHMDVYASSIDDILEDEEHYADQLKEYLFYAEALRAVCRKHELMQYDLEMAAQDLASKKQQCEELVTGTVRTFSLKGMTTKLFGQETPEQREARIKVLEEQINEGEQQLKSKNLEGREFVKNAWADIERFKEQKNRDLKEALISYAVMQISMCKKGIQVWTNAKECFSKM
Test: co-IP; anti-SNX4 (E-18) on Protein A Sepharose, HEK293 lysate (0.1 M NaCl, 10 mM Na2HPO4 pH 7.4, 1 mM EDTA, 1% Triton X-100), overnight at 4°C, Western blot; cells untreated, or transfected with control, SNX4 or CHC siRNA, or treated with nocodazole for 30 min
Details: partners not purified

fold change of CHC binding to SNX4, nocodazole-treated against untreated cells: 2.3 fold
B1: clathrin heavy chain (CHC), endogenous (natural protein, human (endogenous in HEK293), UniProt Q00610 1-1675, looked up)
chain: MAQILPIRFQEHLQLQNLGINPANIGFSTLTMESDKFICIREKVGEQAQVVIIDMNDPSNPIRRPISADSAIMNPASKVIALKAGKTLQIFNIEMKSKMKAHTMTDDVTFWKWISLNTVALVTDNAVYHWSMEGESQPVKMFDRHSSLAGCQIINYRTDAKQKWLLLTGISAQQNRVVGAMQLYSVDRKVSQPIEGHAASFAQFKMEGNAEESTLFCFAVRGQAGGKLHIIEVGTPPTGNQPFPKKAVDVFFPPEAQNDFPVAMQISEKHDVVFLITKYGYIHLYDLETGTCIYMNRISGETIFVTAPHEATAGIIGVNRKGQVLSVCVEEENIIPYITNVLQNPDLALRMAVRNNLAGAEELFARKFNALFAQGNYSEAAKVAANAPKGILRTPDTIRRFQSVPAQPGQTSPLLQYFGILLDQGQLNKYESLELCRPVLQQGRKQLLEKWLKEDKLECSEELGDLVKSVDPTLALSVYLRANVPNKVIQCFAETGQVQKIVLYAKKVGYTPDWIFLLRNVMRISPDQGQQFAQMLVQDEEPLADITQIVDVFMEYNLIQQCTAFLLDALKNNRPSEGPLQTRLLEMNLMHAPQVADAILGNQMFTHYDRAHIAQLCEKAGLLQRALEHFTDLYDIKRAVVHTHLLNPEWLVNYFGSLSVEDSLECLRAMLSANIRQNLQICVQVASKYHEQLSTQSLIELFESFKSFEGLFYFLGSIVNFSQDPDVHFKYIQAACKTGQIKEVERICRESNCYDPERVKNFLKEAKLTDQLPLIIVCDRFDFVHDLVLYLYRNNLQKYIEIYVQKVNPSRLPVVIGGLLDVDCSEDVIKNLILVVRGQFSTDELVAEVEKRNRLKLLLPWLEARIHEGCEEPATHNALAKIYIDSNNNPERFLRENPYYDSRVVGKYCEKRDPHLACVAYERGQCDLELINVCNENSLFKSLSRYLVRRKDPELWGSVLLESNPYRRPLIDQVVQTALSETQDPEEVSVTVKAFMTADLPNELIELLEKIVLDNSVFSEHRNLQNLLILTAIKADRTRVMEYINRLDNYDAPDIANIAISNELFEEAFAIFRKFDVNTSAVQVLIEHIGNLDRAYEFAERCNEPAVWSQLAKAQLQKGMVKEAIDSYIKADDPSSYMEVVQAANTSGNWEELVKYLQMARKKARESYVETELIFALAKTNRLAELEEFINGPNNAHIQQVGDRCYDEKMYDAAKLLYNNVSNFGRLASTLVHLGEYQAAVDGARKANSTRTWKEVCFACVDGKEFRLAQMCGLHIVVHADELEELINYYQDRGYFEELITMLEAALGLERAHMGMFTELAILYSKFKPQKMREHLELFWSRVNIPKVLRAAEQAHLWAELVFLYDKYEEYDNAIITMMNHPTDAWKEGQFKDIITKVANVELYYRAIQFYLEFKPLLLNDLLMVLSPRLDHTRAVNYFSKVKQLPLVKPYLRSVQNHNNKSVNESLNNLFITEEDYQALRTSIDAYDNFDNISLAQRLEKHELIEFRRIAAYLFKGNNRWKQSVELCKKDSLYKDAMQYASESKDTELAEELLQWFLQEEKRECFGACLFTCYDLLRPDVVLETAWRHNIMDFAMPYFIQVMKEYLTKVDKLDASESLRKEEEQATETQPIVYGQPQLMLTAGPSVAVPPQAPFGYGYTAPPYGQPQPGFGYSM
notes: clathrin heavy chain, endogenous in HEK293 cells, detected with anti-CHC; source: endogenous, HEK293 lysate
